# Source: US11702666B2, “Cell-based assay for determining activity in the retinoblastoma pathway” (Medical Diagnostic Laboratories, LLC, priority 2017, dated 2023)
# Entries after “also recorded” stand apart in the source; their conditions may differ.
# Tested on: Rb/E2F1-Dp-1 complex
# Assay: CDK4 mutant activity / drug resistance in NanoBiT assay, stable cell line #11
# Assay type: cell-based, human
# Conditions: for luciferase signal compared to WT CDK4 (in words): no drug; for Observed drug resist.: Palbociclib/Ribociclib, KD = kinase dead
# Method: A linear expression cassette of mutated CDK4 or CDK6 was generated by PCR mediated overlapping extension method. A pair of forward and reverse primers containing the targeted mutations was designed. The mutated codon was located in the middle of a primer flanked by 18-21 nucleotides on each side. Two PCRs (named as PCR #1 and PCR #2 in FIG. 1) were performed using UF-CMV forward and mutated reverse primers, or mutated forward and BGH-UR primers. The PCR products were cleaned up by ExoSAP-IT® (Affymetrix) to remove unconsumed dNTPs and primers. The treated PCR products were mixed together followed by dilution with water. A second round of PCR was performed using the diluted PCR mixture, and the UF and UR primers (FIG. 1). The amplified products were gel-purified. The DNA concentration was quantitated by the optical density at 260 nm using Nanodrop. The targeted mutations were incorporated in the CDK4 or CDK6 genes during the PCR mediated overlapping extension method. The introduced mutations were confirmed by the DNA sequencing.
# To examine the ability of the assay to detect variants in CDK4 or CDK6 that affect function, kinase dead mutants and COSMIC (Catalogue Of Somatic Mutations in cancer) unknown mutants were created. For comparison, hyperactive CDK4 or CDK6 mutants known to be hyperactive due to less binding to natural inhibitor p16 were also created. The mutations in CDK4 or CDK6 were created by site-directed mutagenesis. WT or mutated CDK4 or CDK6 along with the CyclinD1 and SB-Rb were co-transfected, under similar conditions as previously indicated (see FIG. 9).
# To examine the specificity of the assay, particular CDK4 kinase dead mutants were created. Modifications to D158 were made by changing aspartate to nonpolar alanine (D158A) or positively charged arginine (D158R). […] The mutations in CDK4 were created by site-directed mutagenesis. WT or mutated CDK4 along with the CyclinD1 and SB-Rb was co-transfected into the #11 cell line, under the same conditions as previously indicated. […] Kinase dead mutants have the high signal due to inability to phosphorylate Rb.
# Computer modeling was used to reveal the drug-binding pocket and predict drug-resistant mutants. The mutations in CDK4 and CDK6 were created by site-directed mutagenesis. WT or mutated CDK4 or CDK6 along with the CyclinD1 and SB-Rb was co-transfected into #11 cell line, under the same conditions as previously indicated. […] Dose response curves are presented on FIG. 13A and FIG. 13B. Activity of other mutants was very similar to the WT or KD.
# CDK4 and CDK6 mutants with known function and unknown function taken from the COSMIC database were analyzed in the present assay and are summarized in Table 7A and Table 7B. The mutants were classified according to their activity. Table 7A and Table 7B also show the number of counts per mutant in the COSMIC database, type of cancer, and luciferase activity compared to the WT (being 100%).
# [1] = predicted drug resistant CDK4 mutants, relative to WT
# [2] = predicted drug resistant CDK4 mutants
Molecule,Luc. activity (/wt) [1] [%],further results
"CDK4 R24C: hyperactive CDK4 mutant, COSMIC database (protein, UniProt P11802 2-303, looked up, variant R24C) Cyclin-dependent kinase 4: ATSRYEPVAEIGVGAYGTVYKACDPHSGHFVALKSVRVPNGGGGGGGLPISTVREVALLRRLEAFEHPNVVRLMDVCATSRTDREIKVTLVFEHVDQDLRTYLDKAPPPGLPAETIKDLMRQFLRGLDFLHANCIVHRDLKPENILVTSGGTVKLADFGLARIYSYQMALTPVVVTLWYRAPEVLLQSTYATPVDMWSVGCIFAEMFRRKPLFCGNSEADQLGKIFDLIGLPPEDDWPRDVSLPRGAFPPRGPRPVQSVVPEMEESGAQLLLEMLTFNPHKRISAFRALQHSYLHKDEGNPE",–,"Luc. activity (/wt) (CDK4 mutants, compared to the WT (being 100%)): 91%; luciferase signal compared to WT CDK4 (in words) (CDK4 mutants): a little bit lower basal signal than WT"
"CDK4 I51F: predicted drug resistant CDK4 mutant (protein, UniProt P11802 2-303, looked up, variant I51F) Cyclin-dependent kinase 4: ATSRYEPVAEIGVGAYGTVYKARDPHSGHFVALKSVRVPNGGGGGGGLPFSTVREVALLRRLEAFEHPNVVRLMDVCATSRTDREIKVTLVFEHVDQDLRTYLDKAPPPGLPAETIKDLMRQFLRGLDFLHANCIVHRDLKPENILVTSGGTVKLADFGLARIYSYQMALTPVVVTLWYRAPEVLLQSTYATPVDMWSVGCIFAEMFRRKPLFCGNSEADQLGKIFDLIGLPPEDDWPRDVSLPRGAFPPRGPRPVQSVVPEMEESGAQLLLEMLTFNPHKRISAFRALQHSYLHKDEGNPE",160,–
"CDK4 F93I: predicted drug resistant CDK4 mutant (protein, UniProt P11802 2-303, looked up, variant F93I) Cyclin-dependent kinase 4: ATSRYEPVAEIGVGAYGTVYKARDPHSGHFVALKSVRVPNGGGGGGGLPISTVREVALLRRLEAFEHPNVVRLMDVCATSRTDREIKVTLVIEHVDQDLRTYLDKAPPPGLPAETIKDLMRQFLRGLDFLHANCIVHRDLKPENILVTSGGTVKLADFGLARIYSYQMALTPVVVTLWYRAPEVLLQSTYATPVDMWSVGCIFAEMFRRKPLFCGNSEADQLGKIFDLIGLPPEDDWPRDVSLPRGAFPPRGPRPVQSVVPEMEESGAQLLLEMLTFNPHKRISAFRALQHSYLHKDEGNPE",157,Observed drug resist. [2]: showed drug resistance; also recorded: Resistant
"CDK4 I12L: predicted drug resistant CDK4 mutant (protein, UniProt P11802 2-303, looked up, variant I12L) Cyclin-dependent kinase 4: ATSRYEPVAELGVGAYGTVYKARDPHSGHFVALKSVRVPNGGGGGGGLPISTVREVALLRRLEAFEHPNVVRLMDVCATSRTDREIKVTLVFEHVDQDLRTYLDKAPPPGLPAETIKDLMRQFLRGLDFLHANCIVHRDLKPENILVTSGGTVKLADFGLARIYSYQMALTPVVVTLWYRAPEVLLQSTYATPVDMWSVGCIFAEMFRRKPLFCGNSEADQLGKIFDLIGLPPEDDWPRDVSLPRGAFPPRGPRPVQSVVPEMEESGAQLLLEMLTFNPHKRISAFRALQHSYLHKDEGNPE",126,–
"CDK4 T102K: predicted drug resistant CDK4 mutant (protein, UniProt P11802 2-303, looked up, variant T102K) Cyclin-dependent kinase 4: ATSRYEPVAEIGVGAYGTVYKARDPHSGHFVALKSVRVPNGGGGGGGLPISTVREVALLRRLEAFEHPNVVRLMDVCATSRTDREIKVTLVFEHVDQDLRKYLDKAPPPGLPAETIKDLMRQFLRGLDFLHANCIVHRDLKPENILVTSGGTVKLADFGLARIYSYQMALTPVVVTLWYRAPEVLLQSTYATPVDMWSVGCIFAEMFRRKPLFCGNSEADQLGKIFDLIGLPPEDDWPRDVSLPRGAFPPRGPRPVQSVVPEMEESGAQLLLEMLTFNPHKRISAFRALQHSYLHKDEGNPE",162,Observed drug resist. [2]: showed drug resistance; also recorded: Resistant
"CDK4 G18A: predicted drug resistant CDK4 mutant (protein, UniProt P11802 2-303, looked up, variant G18A) Cyclin-dependent kinase 4: ATSRYEPVAEIGVGAYATVYKARDPHSGHFVALKSVRVPNGGGGGGGLPISTVREVALLRRLEAFEHPNVVRLMDVCATSRTDREIKVTLVFEHVDQDLRTYLDKAPPPGLPAETIKDLMRQFLRGLDFLHANCIVHRDLKPENILVTSGGTVKLADFGLARIYSYQMALTPVVVTLWYRAPEVLLQSTYATPVDMWSVGCIFAEMFRRKPLFCGNSEADQLGKIFDLIGLPPEDDWPRDVSLPRGAFPPRGPRPVQSVVPEMEESGAQLLLEMLTFNPHKRISAFRALQHSYLHKDEGNPE",97.5,–
"CDK4 L49R: predicted drug resistant CDK4 mutant (protein, UniProt P11802 2-303, looked up, variant L49R) Cyclin-dependent kinase 4: ATSRYEPVAEIGVGAYGTVYKARDPHSGHFVALKSVRVPNGGGGGGGRPISTVREVALLRRLEAFEHPNVVRLMDVCATSRTDREIKVTLVFEHVDQDLRTYLDKAPPPGLPAETIKDLMRQFLRGLDFLHANCIVHRDLKPENILVTSGGTVKLADFGLARIYSYQMALTPVVVTLWYRAPEVLLQSTYATPVDMWSVGCIFAEMFRRKPLFCGNSEADQLGKIFDLIGLPPEDDWPRDVSLPRGAFPPRGPRPVQSVVPEMEESGAQLLLEMLTFNPHKRISAFRALQHSYLHKDEGNPE",281,–
"CDK4 D158D: CDK4 control with one nucleotide substitution that did not change the amino acid (protein, UniProt P11802 2-303, looked up, silent D158D nucleotide variant) Cyclin-dependent kinase 4: ATSRYEPVAEIGVGAYGTVYKARDPHSGHFVALKSVRVPNGGGGGGGLPISTVREVALLRRLEAFEHPNVVRLMDVCATSRTDREIKVTLVFEHVDQDLRTYLDKAPPPGLPAETIKDLMRQFLRGLDFLHANCIVHRDLKPENILVTSGGTVKLADFGLARIYSYQMALTPVVVTLWYRAPEVLLQSTYATPVDMWSVGCIFAEMFRRKPLFCGNSEADQLGKIFDLIGLPPEDDWPRDVSLPRGAFPPRGPRPVQSVVPEMEESGAQLLLEMLTFNPHKRISAFRALQHSYLHKDEGNPE",–,luciferase signal compared to WT CDK4 (in words) (CDK4 mutants): the same activity as a WT
"CDK4 A157S: predicted drug resistant CDK4 mutant (protein, UniProt P11802 2-303, looked up, variant A157S) Cyclin-dependent kinase 4: ATSRYEPVAEIGVGAYGTVYKARDPHSGHFVALKSVRVPNGGGGGGGLPISTVREVALLRRLEAFEHPNVVRLMDVCATSRTDREIKVTLVFEHVDQDLRTYLDKAPPPGLPAETIKDLMRQFLRGLDFLHANCIVHRDLKPENILVTSGGTVKLSDFGLARIYSYQMALTPVVVTLWYRAPEVLLQSTYATPVDMWSVGCIFAEMFRRKPLFCGNSEADQLGKIFDLIGLPPEDDWPRDVSLPRGAFPPRGPRPVQSVVPEMEESGAQLLLEMLTFNPHKRISAFRALQHSYLHKDEGNPE",195,–
"CDK4 A33S: predicted drug resistant CDK4 mutant (protein, UniProt P11802 2-303, looked up, variant A33S) Cyclin-dependent kinase 4: ATSRYEPVAEIGVGAYGTVYKARDPHSGHFVSLKSVRVPNGGGGGGGLPISTVREVALLRRLEAFEHPNVVRLMDVCATSRTDREIKVTLVFEHVDQDLRTYLDKAPPPGLPAETIKDLMRQFLRGLDFLHANCIVHRDLKPENILVTSGGTVKLADFGLARIYSYQMALTPVVVTLWYRAPEVLLQSTYATPVDMWSVGCIFAEMFRRKPLFCGNSEADQLGKIFDLIGLPPEDDWPRDVSLPRGAFPPRGPRPVQSVVPEMEESGAQLLLEMLTFNPHKRISAFRALQHSYLHKDEGNPE",182,–
"CDK4 T102R: predicted drug resistant CDK4 mutant (protein, UniProt P11802 2-303, looked up, variant T102R) Cyclin-dependent kinase 4: ATSRYEPVAEIGVGAYGTVYKARDPHSGHFVALKSVRVPNGGGGGGGLPISTVREVALLRRLEAFEHPNVVRLMDVCATSRTDREIKVTLVFEHVDQDLRRYLDKAPPPGLPAETIKDLMRQFLRGLDFLHANCIVHRDLKPENILVTSGGTVKLADFGLARIYSYQMALTPVVVTLWYRAPEVLLQSTYATPVDMWSVGCIFAEMFRRKPLFCGNSEADQLGKIFDLIGLPPEDDWPRDVSLPRGAFPPRGPRPVQSVVPEMEESGAQLLLEMLTFNPHKRISAFRALQHSYLHKDEGNPE",156,–
"CDK4 F931 T102K: CDK4 double mutant F93I and T102K (protein, UniProt P11802 2-303, looked up, variant F93I T102K) Cyclin-dependent kinase 4: ATSRYEPVAEIGVGAYGTVYKARDPHSGHFVALKSVRVPNGGGGGGGLPISTVREVALLRRLEAFEHPNVVRLMDVCATSRTDREIKVTLVIEHVDQDLRKYLDKAPPPGLPAETIKDLMRQFLRGLDFLHANCIVHRDLKPENILVTSGGTVKLADFGLARIYSYQMALTPVVVTLWYRAPEVLLQSTYATPVDMWSVGCIFAEMFRRKPLFCGNSEADQLGKIFDLIGLPPEDDWPRDVSLPRGAFPPRGPRPVQSVVPEMEESGAQLLLEMLTFNPHKRISAFRALQHSYLHKDEGNPE",152,Observed drug resist. [2]: Resistant
